Source: PMC7835520

Key:
Experiment in all cases: SEC; cleared, microfiltered serum-containing supernatant of transfected Bosc23 cells; Superdex 200 10/300 GL in PBS at 4°C; fractions TCA precipitated and immunoblotted with α-Shh or α-StrepII antibodies; total eluted protein set to 100%, monomeric (< 80 kDa) versus multimeric (> 80 kDa)
[1] = target: Shh^HA, Shh with an HA tag inserted into the C-terminal peptide (Mus musculus)
[2] = target: Shh^Strep, Shh with a StrepII tag inserted into the C-terminal peptide (Mus musculus)
[3] = target: Sonic hedgehog (Shh), untagged (Mus musculus)
[4] = target: ^HAShh^HA, Shh with HA tags in both terminal peptides (Mus musculus)

Shh^HA, Shh with an HA tag inserted into the C-terminal peptide (ligand)
percent of eluted protein < 80 kDa (monomeric) [1]: 65%

Shh^Strep, Shh with a StrepII tag inserted into the C-terminal peptide (ligand)
percent of eluted protein < 80 kDa (monomeric) [2]: 80%

Sonic hedgehog (Shh), untagged (ligand)
percent of eluted protein < 80 kDa (monomeric) [3]: 15%

^HAShh^HA, Shh with HA tags in both terminal peptides (ligand)
percent of eluted protein < 80 kDa (monomeric) [4]: 56%
